We go through three molecules from patent US20240287161A1 (NATIONAL UNIVERSITY CORPORATION TOTTORI UNIVERSITY, published 2024).

In experiment [1] the target is T1, MERS-CoV trimeric S protein (amino acids 13-1296) with T4 foldon, histidine tag and strep-tag (MERS-CoV, UniProt K9N5Q8 16-1293). Kind of experiment: ELISA on coated S-trimeric antigen, anti-human IgG-HRP [Human IgG1, NT-108]. On the technique in general: An ELISA detects its analyte on a solid surface through an enzyme-linked reagent.
Experiment [2] concerns the target T1, MERS-CoV trimeric S protein (amino …). Nature of the experiment: ELISA on coated S-trimeric antigen, anti-human IgG-HRP [Human IgG1, NT-193].
The target is the same in experiment [3]. Kind of experiment: ELISA on coated S-trimeric antigen, anti-human IgG-HRP [Human IgG3, NT-193].

B1: NT-108 (recombinant human IgG1/kappa antibody) (antibody, V domains shown)
VH: EVQLQQSGPGLVKPSQTLSLTCSISGDSVSSNSAAWNWIRQSPSRGLEWLGRTYYRSKWYNDYAGTVKSRIAINPDTSKNQFSLHLNSVTPEDTAVYFCARVISVAGYAFDIWGQGTMVTVSS
VL: EIVLTQSPGTLSLSPGERATLSCRASQSVSSTFLAWYQQKPGQAPRLLIYGASYMATGIPDRFSGSGSGTDFTLTISRLEPEDFAVYYCQQYGSSLTFGGGTKLEIK
On to B1, for which the binding result in experiment [1] is on record as “no binding (tested: 1000 ng/ml)”.

B2: NT-193 (recombinant human IgG1/kappa antibody) (antibody, V domains shown)
VH: EVQLQQWGAGLLKPSETLSLTCAVYGGSFSGYYWSWIRQPPGKGLEWIGEINHSGSTNYNPSLKSRVTISVDTSKNQFSLKLSSVTAADTAVYYCARGWDLDYYYGMDVWGQGTTVTVSS
VL: DIRMTQSPSAMSASVGDRVTVTCRASQGIGNYLAWFQLKPGKVPKRLIYAASSLQSGVPARFSGGGSGTEFTLTISSLQPEDFATYYCLQHGFLPWTFGQGTKLEIK
For B2, the binding result in experiment [2] was “no binding (tested: 1000 ng/ml)”.

B3: NT-193, human IgG3 subclass (antibody, V domains shown)
VH: EVQLQQWGAGLLKPSETLSLTCAVYGGSFSGYYWSWIRQPPGKGLEWIGEINHSGSTNYNPSLKSRVTISVDTSKNQFSLKLSSVTAADTAVYYCARGWDLDYYYGMDVWGQGTTVTVSS
VL: DIRMTQSPSAMSASVGDRVTVTCRASQGIGNYLAWFQLKPGKVPKRLIYAASSLQSGVPARFSGGGSGTEFTLTISSLQPEDFATYYCLQHGFLPWTFGQGTKLEIK
As to B3, the binding result in experiment [3] is “no binding (tested: 1000 ng/ml)”.
